The assay has as its target human CD40 on cells (HEK293 transfected with human CD40; Ramos-Blue B-lymphocytes; human B cells; human monocyte-derived dendritic cells) (human) (UniProt P25942). In words: cell-based or functional assay.
Chain of UniProt P25942 (P25942 21-277 limits assumed): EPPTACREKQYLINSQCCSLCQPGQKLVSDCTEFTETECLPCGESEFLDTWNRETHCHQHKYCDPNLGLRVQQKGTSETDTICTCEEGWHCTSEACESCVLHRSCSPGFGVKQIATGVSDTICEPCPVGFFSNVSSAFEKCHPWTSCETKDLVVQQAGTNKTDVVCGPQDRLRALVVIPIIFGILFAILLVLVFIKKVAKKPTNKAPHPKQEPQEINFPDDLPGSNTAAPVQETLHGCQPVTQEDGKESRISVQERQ

With “human IgG4P isotype control NIP-228 (antibody)”, the EC50 (nM), NFkB-luciferase reporter, HuCD40 293 HEK NFkB c3 cells was 2.27 nM and the EC50 (nM), NFkB/AP-1 reporter, Ramos-Blue B-cells was 208 nM.

Values taken from patent US20210260159A1.
